Experimental data published in a protein production outcome set (Wang et al. 2014).

Assay: label from the status in PepcDB records
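Further: failed if final PepcDB status was selected cloned or expressed and not failed if soluble or beyond.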

Protein production, failed:
MEYNRNFFIAIGLSFGVLIAWHFFYVAPKQTELQQKQLIAQQLLKQQSAVSSPTANFSDSASTHESALIINHPMSPEIRDAELAKTNRVAIKTNELEGSINLVGAQFDDLLLKKYRLTVDKKSSEIALLNPKGFKETYLAEFGFTSSSLSKDALPQSDTRWHIEGNNTTLTPSTPVTLIYNNGQGQTFRRILSIDDHYMFTIEDSITNESDKPIYLSSYARVARAAPPEHTNATYLLHEGMIGIAGDSLKTEKYKTLAELNPNPDNGQKSMTFSKVIGGWVGITDKYWAVAVIPPQDKEYTSRFIYFDRLQTHYQSDLLGSLLTVAPNETKTITNRLFAGAKQVEIINHYQNDLKIKKFALLIDWGWFDFITKPMFSLIDILYKQTGNFGIAILLVTVLLKTLLFPLANKSYKSMARMKLIQPMLLEIKEKYPEDRTKQQQAIIELYKTQKINPLAGCWPMLVQFPIFFALYKVLYITIEMRHAPFFGWIQDLAAPDPTSLFNLFGLLPYTVPAFLMLGAWPLIMGITMFLQMRMNPAPQDQTQAMIFAWMPIVFTFMLASFPVGLVIYWAWNNILSMIQQGIMMKRQGVKIELFDNLKAMWRKSPKKEAHE, MEYSFYDFLKLIGSLGLFLYGMKIMSEGLQKVAGDRLRGILTAMTTNRVTGVLTGVLITALIQSSSATTVMVVSFVNAGLLTLAESISVIMGANIGTTVTAWIISIFGFKVDMAAFALPLLAIALPLIFSGKSNRKSIGEFIFGFSFLFMGLSYLKANAPDLNANPEMLAFVQNYTDMGFFSVLLFLFIGTILTMIVQASAATMAITLIMCANGWISLELGAALVLGENIGTTITANLAALTANSQAKRAALAHFVFNVFGVIWVLIIFHPFMVFVNWVVDTFFHPGSAEVAISYKLSAFHSIFNICNVCLLIWGVKLIERTVCAIIRPKEEDEEPRLRFITGGMLSTAELSILQARKEIHLFSERIHRMFGMVQDLLHTEKDDDFNKLFSRIEKYENISDNMELEIANYLNQVSEGRLSSESKLQIRAMLREVTEIESIGDSCYNLARTISRKRQTNQDFTEKQYEHIHFMMKLTNDALSQMIVVVEKPEHQSIDVNKSFNIENEINNYRNQLKNQNILDVNNKEYDYQMGVYYMDIIAECEKLGDYVVNVVEASSDVKEKKAS, MEYYNLILYLLVFGADMLIILQTYNEIKMWKTVKGNFVGKVSIIVPIKGIDTRLERNIESLLSQDYPYPYEVIYVVEKGDEVENILKKYNVKIVYSDFNCDSCSGKIRAQISGLLRASNDIIVFADSDTWYPRYWLRNLISPLDKYDTTTTFSWPFPSRITLSNLIRAGFWTLGFESQSLQSSRFLWGGSMALRREFFDNEVLDELSKEWCDDCTLTRIIKRRGGKIGFVMSAIPLNVYDENSLISWSSRQIITILAYSPRGARAYLVAGTFFALILIYSLVYLNIVTFTPYILWIVKNVIRGVKYPKQALIASLMTILAIPYALFLLVFNWNRREVYWRGKRYIVKPLREK, MFAAAVSFVALLLFTIGLYGVMTSRVGIKMLISIEIMINSAILSIIGIGSYFYSSSVQIDPYVFALFAIAIGVVESAVGLGLLVIVYRKFGKIDISLLKEIRW, MFAHQNASFPPRPEGRGGKEAVFRLTVFCIITFSSLICEAMKRAYKYRFYPTTEQAELLAQTFGCVRFVYNSILRWRTDAYYERKEKIGYLQANARLTALKKEPEFAWLNDVSCVPLQQSLRHQQTAFANFFAGRAAYPAFKSKRHKQAAEFTASAFKYRDGKLYMAKNKIPLDVRWSRPLPSVPSTVTISKDAAGRYFVSCLCEFEPASLPITSSMVGIDVGLKDLFVTDTGFRSGNPRHTAKYAARLALLQRRLSKKAKGSKNRAKAHLKVARLHAKIADCRLDALHKATRKLINDNQVVCVESLKVRNMIRNPSLSKAIADASWGELVRQLRYKGEWAGRSVVAIDQFFPSSKRCSCCGFIMKKMPLDVRKWQCPECGTDHDRDVNAARNIKAAGLAVLAHGEPVNPESLKAALEHHHHHH, MFALCDVNAFYASCETVFRPDLWGKPVVVLSNNDGCVIARNAEAKALGVKMGDPWFKQKDLFRRCGVVCFSSNYELYADMSNRVMSTLEELSPRVEIYSIDEAFCDLTGVRNCRDLTDFGREIRATVLQRTHLTVGVGIAQTKTLAKLANHAAKKWQRQTGGVVDLSNLERQRKLMSALPVDDVWGIGRRISKKLDAMGIKTVLDLADTDIRFIRKHFNVVLERTVRELRGEPCLQLEEFAPTKQEIICSRSFGERITDYPSMRQAICSYAARAAEKLRSEHQYCRFISTFIKTSPFALNEPYYGNSASVKLLTPTQDSRDIINAATRSLDAIWQAGHRYQKAGVMLGDFFSQGVAQLNLFDDNAPRPGSEQLMTVMDTLNAKEGRGTLYFAGQGIQQQWQMKRAMLSPRYTTRSSDLLRVK, MFALVLAAGRSRRFDGDKRKALLPCGRTLLTACLETAGKVFTETGVVLREDDEVQTLGIPSKVTIIRCKHADLGMGHSLAAGIAAALNSSADAVAILLADMPWIEPQTLRDLARLADPQRIALPMHEGQRGHPVIIGRRFWPRLLALEGDQGAKALITNNPAFCDVMNCDDPGVLRDADTRSALAIACRQHLTAGRDLEHHHHHH, MFANKILTEKDTDQIRFSILASGSSGNATLVETGDQKILIDCGLSGKKMEGLFAQVGRDMNDLDAILITHEHSDHIKGLGVLARKYKLPIYANAKTWKAMDNMIGEVSSDQKFQFDMETVKNFGSMQVESFGVSHDAIEPMFYIFHKGNKKFVMITDTGYVSDRMKGHIAGADAYLFESNHDVEMLRMGRYPWNVKRRILGDEGHVSNEDAAIAMSEVITDQTKRIYLGHLSKDNNMKELARMSVTQTLMAEGIDVGGKLEIFDTDPDNATSIFTILEHHHHHH, MFASCHCVPRGRRTMKMIHFRSSSVKSLSQEMRCTIRLLDDSEISCHIQRETKGQFLIDHICNYYSLLEKDYFGIRYVDPEKQRHWLEPNKSIFKQMKTHPPYTMCFRVKFYPHEPLKIKEELTRYLLYLQIKRDIFHGRLLCSFSDAAYLGACIVQAELGDYDPDEHPENYISEFEIFPKQSQKLERKIVEIHKNELRGQSPPVAEFNLLLKAHTLETYGVDPHPCKDSTGTTTFLGFTAAGFVVFQGNKRIHLIKWPDVCKLKFEGKTFYVIGTQKEKKAMLAFHTSTPAACKHLWKCGVENQAFYKYAKSSQIKTVSSSKIFFKGSRFRYSGKVAKEVVEASSKIQREPPEVHRANITQSRSSHSLNKQLIINMEPLQPLLPSPSEQEEELPLGEGVPLPKEENISAPLISSSPVKAAREYEDPPSEEEDKIKEEPLTISELVYNPSASLLPTPVDDDEIDMLFDCPSRLELEREDTDSFEDLEADENAFLIAEEEELKEARRALSWSYDILTGHIRVNPLVKSFSRLLVVGLGLLLFVFPLLLLLLESGIDLSFLCEIRQTPEFEQFHYEYYCPLKEWVAGKVHLILYMLGCS, MFCGRFANFIMRDVINFIKKYNNFVIIGHKDPDFDCIGSSLALSSFLSRIGKNSILLNEGPFIRKEIVPFKDKFLSEWPNIEISEYSVIILDCSILDRIGDEFIFYVKNMPTLVIDHHMSGEKLECEGYIDPFAPSTTFLIEKLIREFGHDLTKEEAWYILVGFCTDTGFFKFISRSDPEPFEMVARLVSKGISLKEVYSYIETTKSLKSIETLKLMLNSLESYWNGKVLFTFLSSSSSGKDGGVSGVNELFYMILSNVENNEILGILKEMEDGSIIVGLRSKDSFDVGKLAEDFGGGGHKNASGFRIKQGSLEIVKNRMLAYIKDNIYLLEHHHHHH, MFDATRAAFLGVAVFISVLLVASFFSPTPGRAVEPAPAGAPAQEGSLPHDGLGSIKPIHDVDLGGVEQPPLPAPVDPDPSFNPQPPFAPGELREGFVDVGNGNIRRYLIHVGTNYQPHAPELTPVVFGFGGWKDTPEKFADYSRFGLTDFGANAMIIYPEGIARAWEGAPYAATRVGDDVHFVRTILNAVDADYRIDRSRVYAVGMSNGGGMAASLACHAPDLVAGVVSVSAAYYEPVVADCAPGAVATLDIHGTHDEVIAYQGGMRHGAPFLGAEQVVAGVAARNGCGPALPPRWIEGPAEHYGFAGCAAPVEHVRVLGQKHVWNGVPHATTLAWEFLHHQHK, MFDNLTDRLSRTLRNISGRGRLTEDNVKDTLREVRMALLEADVALPVVREFINRVKEKAVGHEVNKSLTPGQEFVKIVRNELVAAMGEENQTLNLAAQPPAVVLMAGLQGAGKTTSVGKLGKFLREKHKKKVLVVSADVYRPAAIKQLETLAEQVGVDFFPSDVGQKPVDIVNAALKEAKLKFYDVLLVDTAGRLHVDEAMMDEIKQVHASINPVETLFVVDAMTGQDAANTAKAFNEALPLTGVVLTKVDGDARGGAALSIRHITGKPIKFLGVGEKTEALEPFHPDRIASRILGMGDVLSLIEDIESKVDRAQAEKLASKLKKGDGFDLNDFLEQLRQMKNMGGMASLMGKLPGMGQIPDNVKSQMDDKVLVRMEAIINSMTMKERAKPEIIKGSRKRRIAAGCGMQVQDVNRLLKQFDDMQRMMKKMKKGGMAKMMRSMKGMMPPGFPGR, MFDQYRKTILAGAVALTCGLTAASTFAAGFQPAQPAGKLGAVVVDPYGNAPLTALVELDSHIISDVKVTVHGKGEKGVPVTYTVGKESLETYDGIPIFGLYQKFANNVTVEYKENGKAMKDDYVVQTSAIVNHYMDNRSISDLQQTKVIKVAPGFEDRLYLVNTHTFTPQGAEFHWHGEKDKNAGILDAGPAGGALPFDIAPYTFVVDTQGEYRWWLDQDTFYDGHDMNINKRGYLMGIRETPRGTFTAVQGQHWYEFDMMGQILADHKLPRGFLDASHESIETVNGTVLLRVGKRVTAKKTAYMFILFVTKSLRSISLAALEHHHHHH

Protein production, not failed:
MEYELLIREAEPKDAAELVAFLNRVSLETDFTSLDGDGILLTSEEMEIFLNKQASSDNQITLLAFLNGKIAGIVNITADQRKRVRHIGDLFIVIGKRYWNNGLGSLLLEEAIEWAQASGILRRLQLTVQTRNQAAVHLYQKHGFVIEGSQERGAYIEEGKFIDVYLMGKLIG, MEYFLPLISIVTISYNAVNLIEKTILSVVEQDTADFEYIVIDGGSTDGTVEVIRKYENAISYWVSESDKGIFDAMNKALSVAKGDWVIFMNSGDCFYNNHVLSEIAIYMKDEETELIYGDVNLFSGKRNFIFKQRVSGININLNSVCHQTVFIRRKLHPYFDVRYKLTADHDIIFDFIKRGQYIHANIVIAKVLLGGVSHDVIKTSLEKLLISYRKGTFMDLLLSPLCNIYQVIKYFVKKLLISALPIELFNKMSRMKSKMESNFLEHHHHHH, MEYGFWLPIFGGWLRNVNDESMPPTFEYAKQTAQAAEQLGFSTTLIAELNLNDIKGVSAPSLEAWTTAAALAAVTDRLEIMTAVRPGFHNPAVTAKMAANIDQLSNGRFTLNVVSAWWEEEAKQYGGVFTAHDERYDRTEEFVTILKGLWKEEEFSYKGNFYELHHTHLSPKPVQKQGIKLYAGGESKRGKEVIVNHADAYVMHGGTVEEVSVKIEDMKNRRKKVTEEPLQSFGLAAYVICRHTEEEALEEWRRITDVKDDALGYAGYQDFVSKSQLEQQVKLNDYSVSNRGLRPNLIGTPEQIAERILAFEKVGVTLLLLQFSPQLEEMKRFSEKVMPLVEAKRKELIT, MEYKKFVEARRELNEKVLSRGTLNTKRFFNLDSAVYRPGKLDVKTKELMGLVASTVLRCDDCIRYHLVRCVQEGASDEEIFEALDIALVVGGSIVIPHLRRAVGFLEELREMEKNGETISL, MFALEELPRIPDFTERAICELFELYASIESVQLPPQSSDATNSSSATAPGNIFSAERGPRYLGPRALVRFFTELGVDMRSLAALAFAWLGRWQYPCHCREEGFARGVRYALWALDRRQHNEPRRWEQVQATCSTLLETSIWPRESTALFERLRSAFPDAVLSYTQRSAEAALDFYLFAFDLNRQSPYRRSLSLTDARYLWKQFLSESCYLATPASPGTPAGVANQPWRYLEHFDAYLESRCGMAGTIISRDTWYWVLMFARETQVAGSSFFANYNQGDAWPVLLDGFVEYLRENKLLSS
